# Test results as given in patent publication US20150361454.
# B1: Prochlorococcus marinus MED4 acyl-ACP reductase (MED4_AAR), wild type (protein)
# chain: MAFGLIGHSTSFEDAKRKASLLGFDHIADGDLDVWCTAPPQLVENVEVKSAIGISIEGSYIDSCFVPEMLSRFKTARRKVLNAMELAQKKGINITALGGFTSIIFENFNLLQHKQIRNTSLEWERFTTGNTHTAWVICRQLEMNAPKIGIDLKSATVAVVGATGDIGSAVCRWLINKTGIGELLLVARQKEPLDSLQKELDGGTIKNLDEALPEADIVVWVASMPKTMEIDANNLKQPCLMIDGGYPKNLDEKFQGNNIHVVKGGIVRFFNDIGWNMMELAEMQNPQREMFACFAEAMILEFEKCHTNFSWGRNNISLEKMEFIGAASVKHGFSAIGLDKHPKVLAV
# Target: Prochlorococcus marinus MED4 aldehyde decarbonylase (MED4_ADC), wild type
protein,measurement,value
B1,products detected on coexpression in E. coli (AAR catalytic activity),"when only MED4_AAR is expressed in E. coli no products are detected, and when MED4_AAR and ADC are coexpressed in E. coli the only products detected are alkanes"
